The record followed here is publication PMC7611026 (Journal of molecular biology, 2008).

Assay [1] has as its target T1, RhlB, individually prepared recombinant (E. coli, UniProt P0A8J8 1-421).
T1 sequence: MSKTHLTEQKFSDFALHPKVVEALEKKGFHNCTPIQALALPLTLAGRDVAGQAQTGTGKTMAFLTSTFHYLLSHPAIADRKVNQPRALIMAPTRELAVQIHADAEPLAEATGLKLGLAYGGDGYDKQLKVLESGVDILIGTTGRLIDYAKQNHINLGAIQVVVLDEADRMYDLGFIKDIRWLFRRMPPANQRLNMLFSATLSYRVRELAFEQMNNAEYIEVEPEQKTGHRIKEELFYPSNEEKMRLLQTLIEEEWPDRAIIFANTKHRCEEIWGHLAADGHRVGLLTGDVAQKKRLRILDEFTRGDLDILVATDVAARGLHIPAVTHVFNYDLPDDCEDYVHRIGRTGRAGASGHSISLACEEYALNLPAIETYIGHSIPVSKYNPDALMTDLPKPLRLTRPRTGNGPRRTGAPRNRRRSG
The assay is described as follows: cross-linking.

The target in assay [2] is RNase E(1–762), hexahistidine-tagged, coexpressed with RhlB (E. coli) (UniProt P21513). The assay is described as follows: pull-down + SEC.
RNase E(1–762), hexahistidine-tagged, coexpressed with RhlB (E. coli), sequence (P21513 1-762): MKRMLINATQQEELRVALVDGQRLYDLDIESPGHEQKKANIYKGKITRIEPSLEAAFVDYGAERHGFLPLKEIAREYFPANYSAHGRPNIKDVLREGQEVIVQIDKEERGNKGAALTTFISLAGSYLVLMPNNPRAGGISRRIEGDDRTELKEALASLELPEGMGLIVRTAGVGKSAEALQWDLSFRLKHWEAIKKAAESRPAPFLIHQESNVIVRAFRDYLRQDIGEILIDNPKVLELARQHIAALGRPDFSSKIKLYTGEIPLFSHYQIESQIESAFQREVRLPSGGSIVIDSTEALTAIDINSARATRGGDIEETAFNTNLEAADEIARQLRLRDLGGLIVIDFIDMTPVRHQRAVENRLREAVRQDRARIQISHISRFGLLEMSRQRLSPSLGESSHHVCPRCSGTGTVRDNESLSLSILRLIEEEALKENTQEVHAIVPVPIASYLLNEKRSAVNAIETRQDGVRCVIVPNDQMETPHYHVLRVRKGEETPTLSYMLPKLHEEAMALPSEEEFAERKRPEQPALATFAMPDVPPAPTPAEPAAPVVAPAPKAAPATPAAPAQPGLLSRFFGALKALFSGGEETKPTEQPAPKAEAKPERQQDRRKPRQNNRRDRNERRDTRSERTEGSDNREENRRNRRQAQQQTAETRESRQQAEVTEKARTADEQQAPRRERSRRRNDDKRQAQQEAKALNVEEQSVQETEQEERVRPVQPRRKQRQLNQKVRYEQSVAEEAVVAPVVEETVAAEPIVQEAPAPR
Assay [3] has as its target RNase E, genomically encoded, C-terminally FLAG-tagged (rne-FLAG, strain TM522) (E. coli K12, UniProt P21513 1-1061). The assay can be described thus: co-IP.

RNase E, genomically encoded, C-terminally FLAG-tagged (rne-FLAG, strain TM522), sequence (P21513 whole entry): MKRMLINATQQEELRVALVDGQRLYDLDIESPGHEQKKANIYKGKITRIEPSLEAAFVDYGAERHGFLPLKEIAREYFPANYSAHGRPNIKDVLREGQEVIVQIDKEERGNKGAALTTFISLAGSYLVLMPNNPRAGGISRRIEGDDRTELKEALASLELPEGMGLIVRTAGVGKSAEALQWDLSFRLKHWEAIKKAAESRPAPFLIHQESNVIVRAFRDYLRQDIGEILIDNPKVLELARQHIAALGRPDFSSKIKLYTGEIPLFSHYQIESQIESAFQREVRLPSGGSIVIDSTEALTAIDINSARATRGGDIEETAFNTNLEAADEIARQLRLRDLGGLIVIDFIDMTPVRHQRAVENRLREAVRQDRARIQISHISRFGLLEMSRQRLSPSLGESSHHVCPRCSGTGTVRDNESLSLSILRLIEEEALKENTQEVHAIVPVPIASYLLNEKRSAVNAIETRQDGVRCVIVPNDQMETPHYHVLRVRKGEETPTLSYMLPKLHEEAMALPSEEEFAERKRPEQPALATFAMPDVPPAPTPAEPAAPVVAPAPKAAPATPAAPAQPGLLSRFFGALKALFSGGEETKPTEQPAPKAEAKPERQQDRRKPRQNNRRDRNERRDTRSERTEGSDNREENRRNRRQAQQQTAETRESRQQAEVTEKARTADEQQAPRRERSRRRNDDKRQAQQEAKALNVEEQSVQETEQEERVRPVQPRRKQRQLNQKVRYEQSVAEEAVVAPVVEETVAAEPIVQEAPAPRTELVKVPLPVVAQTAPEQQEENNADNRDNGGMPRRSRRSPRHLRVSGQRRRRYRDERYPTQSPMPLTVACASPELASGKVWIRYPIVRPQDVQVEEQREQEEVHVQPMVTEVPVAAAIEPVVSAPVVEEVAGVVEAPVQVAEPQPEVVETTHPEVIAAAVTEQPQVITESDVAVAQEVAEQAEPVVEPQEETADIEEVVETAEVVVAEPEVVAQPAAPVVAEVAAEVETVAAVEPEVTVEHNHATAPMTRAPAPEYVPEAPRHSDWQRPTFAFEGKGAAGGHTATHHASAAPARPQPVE

B1: RNase E(628–843) (domain or fragment)
chain: ERTEGSDNREENRRNRRQAQQQTAETRESRQQAEVTEKARTADEQQAPRRERSRRRNDDKRQAQQEAKALNVEEQSVQETEQEERVRPVQPRRKQRQLNQKVRYEQSVAEEAVVAPVVEETVAAEPIVQEAPAPRTELVKVPLPVVAQTAPEQQEENNADNRDNGGMPRRSRRSPRHLRVSGQRRRRYRDERYPTQSPMPLTVACASPELASGKVW
In the case of B1, the binding result in assay [1] is given as “binds”.

B2: RNA helicase B (RhlB), recombinant, coexpressed with RNase E from pRSF_rnerhlB (enzyme)
chain: T1 sequence
In the case of B2, the stoichiometry N (RhlB protomer per RNase E protomer) in assay [2] was found to be 1.

B3: PNPase, endogenous, in the cell-extracted FLAG-tagged degradosome (enzyme)
chain: MLNPIVRKFQYGQHTVTLETGMMARQATAAVMVSMDDTAVFVTVVGQKKAKPGQDFFPLTVNYQERTYAAGRIPGSFFRREGRPSEGETLIARLIDRPIRPLFPEGFVNEVQVIATVVSVNPQVNPDIVAMIGASAALSLSGIPFNGPIGAARVGYINDQYVLNPTQDELKESKLDLVVAGTEAAVLMVESEAQLLSEDQMLGAVVFGHEQQQVVIQNINELVKEAGKPRWDWQPEPVNEALNARVAALAEARLSDAYRITDKQERYAQVDVIKSETIATLLAEDETLDENELGEILHAIEKNVVRSRVLAGEPRIDGREKDMIRGLDVRTGVLPRTHGSALFTRGETQALVTATLGTARDAQVLDELMGERTDTFLFHYNFPPYSVGETGMVGSPKRREIGHGRLAKRGVLAVMPDMDKFPYTVRVVSEITESNGSSSMASVCGASLALMDAGVPIKAAVAGIAMGLVKEGDNYVVLSDILGDEDHLGDMDFKVAGSRDGISALQMDIKIEGITKEIMQVALNQAKGARLHILGVMEQAINAPRGDISEFAPRIHTIKINPDKIKDVIGKGGSVIRALTEETGTTIEIEDDGTVKIAATDGEKAKHAIRRIEEITAEIEVGRVYTGKVTRIVDFGAFVAIGGGKEGLVHISQIADKRVEKVTDYLQMGQEVPVKVLEVDRQGRIRLSIKEATEQSQPAAAPEAPAAEQGE
For B3, in assay [3], the “PNPase component in aceE/aceF-null cells relative to wild-type control cells” value was around 3 fold and the “stoichiometry N” value was ~2 PNPase monomers per RNase E monomer.
